Measurements taken from patent US7691579B2, “Methods and compositions for producing an enhanced immune response to a human papillomavirus immunogen” (priority 2005, dated 2010).
Values joined by “and” are separate entries in the source; they are usually repeats but may differ in a detail not shown here. Equal values may be shown once.

B1: GM-CSF: murine granulocyte/macrophage colony stimulating factor (Preprotech) (protein, UniProt P01587 18-141, looked up)
Granulocyte-macrophage …: APTRSPITVTRPWKHVEAIKEALNLLDDMPVTLNEEVEVVSNEFSFKKLTCVQTRLKIFEQGLRGNFTKLKGALNMTASYYQTYCPPTPETDCETQVTTYADFIDSLKTFLTDIPFECKKPGQK

Assays:
[1] = system: HPV16 pseudovirus; assay: Quantitative HPV16 pseudovirus neutralization assay with sera of vaccinated rabbits; format: in vivo; settings: individual vaccinated rabbits
Excerpt: Development of Antibody Response to L1-VLP: To analyze the effect of the GM-CSF/anti-CD40 antibody combination on antibody response, an ELISA assay was employed to measure the titre of anti-L1-VLP antibodies in mice immunized with the chimeric L1-VLP-L2-E2-E7 construct, with or without the GM-CSF/anti-CD40 antibody combination. Both groups of mice produced high titers of anti-L1 VLP antibodies (FIG. 9). There is no detectable anti-L1 VLP antibody in the serum of mice immunized with E7 peptide in combination with GM-CSF and anti-CD40 in IFA, as expected. […] To confirm the prophylactic potential of the chimeric L1-VLP-L2-E7-E2 construct, the anti body titers raised against the chimeric L1-VLP-E7 E2 construct and the L1-VLPs were compared using a recently developed quantitative HPV16 pseudovirus neutralization assay. […]
To test whether the combination of VLP-E7E2 with immune-modulators affects the antibody response, the titer of anti-L1-VLP antibodies was evaluated by ELISA. […] To confirm the prophylactic potential of the chimeric VLPs, we compared the antibody titers raised against the chimeric VLP-E7E2 and wild type VLPs, using a recently developed quantitative HPV16 pseudovirus neutralization assay. […]

[2] = system: CD11c+ dendritic cells; assay: FACScan analysis of dendritic cells in draining lymph nodes of immunized mice; format: in vivo, HLA-A2 transgenic mice (AAD); settings: in VLP-E7E2 immunized mice, aqueous solution
Protocol: Draining lymph nodes were collected six days after immunization for FACScan analysis. Mice are immunized with 10 μg of chimeric VLP-E7 with or without GM-CSF or an anti-CD40L antibody. Draining inguinal lymph nodes are collected one week after immunization for FACScan analysis. The immunization protocols employed are as follows: Panel A—VLP-E7; Panel B—VLP-E7F+GM-CSF; Panel C—VLP-E7+anti-CD40 antibody; Panel D—VLP-E7+GM-CSF+anti-CD40 antibody. For Data 003, 010, 017, and 024, the percentage of gated is the sum of the number from the upper left and upper right quadrants. For the rest of the data, the percentage of gated is the number from the upper right quadrant indicating the CD80, CD 86 and CD40 positive cells.
Flow cytometric analysis and Abs: Lymph node cells (1×10^6) are taken from mice one week after immunization. […] Data files are analyzed using CellQuest software (BD Biosciences, Mountain View, Calif.).
DCS Play An Important Role In VLP-E7E2/GM-CSF/Anti-CD40 Induced CTL Response In Vivo: It is known that GM-CSF and anti-CD40 play important roles in DC activation (Gurunathan, S. et al. 1998 J. Immunol. 161:4563-4571; Ahlers, J. D. et al. 1997 PNAS USA 94:10856-10861). […] In the Examples reported herein, the phenotypic changes of DC in the draining lymph nodes (DLN) of vaccinated mice were analyzed. […]

[3] = system: C1R.AAD target cells pulsed with E7 11-20 and E7 86-93 peptides; assay: CTL assay (51Cr release) with spleen cells of immunized AAD mice, response to E7; format: in vivo, HLA-A2 transgenic mice (AAD); settings: co-injected in aqueous solution
Protocol: (§1) Immunization: Mice were immunized subcutaneously at the base of the tail with the chimeric VLPs. GM-CSF (Preprotech, Rocky Hill, N.J.) was given the day before and the same day as the VLP injection. Anti-CD40 (SouthernBiotech, Birmingham Ala.) was given with the VLP. Mice were also immunized with 50 nmoles of peptide in incomplete Freund's adjuvant (IFA) with or without GM-CSF (5 μg/mouse) and anti-CD40 (10 μg/mouse). All vaccines were prepared immediately prior to injection. Each group had 4 mice, and the pooled spleen cells from four mice were used for assays. 10 μg of VLP-E7E2 was given to a mouse. The MW of the VLP-E7E2 is about 5280 Kd (72×L1@55 Kd=3960 Kd, and 12×L2E7E2@110 kd=1320 Kd). The number of moles of VLP-E7E2 in 10 μg of total protein is about […].
(§2) CTL assay: Two (or three) weeks after immunization, spleens were aseptically removed and single cell suspensions are prepared. […] Cytolytic activity of cells is measured by a 4-h assay with ^51Cr-labeled EL-4 or C1R.AAD target cells in triplicate wells. Percent ^51Cr release is calculated as 100×(experimental release-spontaneous release)/(maximum release-spontaneous release). Maximum release is determined from supernatants of cells that are lysed by addition of […]. Spontaneous release is determined from target cells culture in medium. Data are expressed as an average from triplicate wells. […]

[4] = system: EL-4 target cells pulsed with E7 49-57 peptides; assay: CTL assay (51Cr release) with spleen cells of immunized C57BL/6 mice; format: in vivo; settings: given in aqueous solution with VLP-E7E2
Protocol: as §1, §2

Molecule	neutralizing titers ([1]; listed as L1-VLP construct)	neutralizing titers ([1]; listed as wild type VLPs)	recruitment or activation of the DCs [2]	effect of co-injection on the VLP-E7E2-induced CTL response to E7 [3]	effect on the VLP-E7E2 induced CTL response [4]
L1-VLP: VLP of the full length L1 capsid protein of HPV16, control	40,960 and 163,840	163,840	–	–	–
B1	–	–	no effect	no effect	no effect
